According to article PMC7954794, “Protein context shapes the specificity of SH3 domain-mediated interactions in vivo” (Nature Communications, 2021):

System: PPIs identified as affected by the SH3 domain deletions
Test: Liquid DHFR-PCA low-throughput validation of PPIs affected by SH3 deletion (Fig. S1D-E)
Type: cell-based, Saccharomyces cerevisiae
Conditions: label = prey, liquid DHFR-PCA, prey _1 = lost, _2 = gained in screen
Method in brief: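 Yeast diploids from DHFR-PCA mating grown 48 h in synthetic complete MSG medium pH 6.0 with NAT and HPH, normalized to 1 OD and diluted to 0.1 OD in liquid PCA selection medium. Growth followed by OD every 15 min for 72 h at 30 °C.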

B1: YOR042W_1 (protein, UniProt Q08412 1-411, looked up)
Ubiquitin-binding protein CUE5: MEEKEGIKDSSLLEKSNVPESINEDISKTTDVDLNSDGKKDNDTSAKDGTPKVEEKVNKSSGIDEDEVVTPAEDAKEEEEEHPPLPARRKSEEEPSKENPILQELKDAFPNLEEKYIKAVIIASQGVLSPAFNALLFLSDPESGKDIELPTQPVRKNPEAPARRRQTQLEQDELLARQLDEQFNSSHSRRRNRDRATRSMHEQRRRRHNPNEREQHHEDSEEEDSWSQFVEKDLPELTDRAGRSLQDTANKVSNWISDAYRRNFASGNEQNDNQHGHQDQQEWEPEIVDLSQGGKNSRPQQPERRRFNSFGVQVGDDSLESHGITLHNEDGFEDDEDVPPQLPTRTKSGESTGKVVAETTYIDTPDTETKKKWQPLPPEPLDTTPTKVNAVSRNKKNPDEDEFLINSDDEM
- Ratio (Deletedscore / WTscore) (bait BBC1): 0.4675
- Ratio (Deletedscore / WTscore) (bait PIN3): 0.5809

B2: YLR337C_1 (protein, UniProt P37370 1-817, looked up)
Verprolin: MAGAPAPPPPPPPPALGGSAPKPAKSVMQGRDALLGDIRKGMKLKKAETNDRSAPIVGGGVVSSASGSSGTVSSKGPSMSAPPIPGMGAPQLGDILAGGIPKLKHINNNASTKPSPSASAPPIPGAVPSVAAPPIPNAPLSPAPAVPSIPSSSAPPIPDIPSSAAPPIPIVPSSPAPPLPLSGASAPKVPQNRPHMPSVRPAHRSHQRKSSNISLPSVSAPPLPSASLPTHVSNPPQAPPPPPTPTIGLDSKNIKPTDNAVSPPSSEVPAGGLPFLAEINARRSERGAVEGVSSTKIQTENHKSPSQPPLPSSAPPIPTSHAPPLPPTAPPPPSLPNVTSAPKKATSAPAPPPPPLPAAMSSASTNSVKATPVPPTLAPPLPNTTSVPPNKASSMPAPPPPPPPPPGAFSTSSALSASSIPLAPLPPPPPPSVATSVPSAPPPPPTLTTNKPSASSKQSKISSSSSSSAVTPGGPLPFLAEIQKKRDDRFVVGGDTGYTTQDKQEDVIGSSKDDNVRPSPISPSINPPKQSSQNGMSFLDEIESKLHKQTSSNAFNAPPPHTDAMAPPLPPSAPPPPITSLPTPTASGDDHTNDKSETVLGMKKAKAPALPGHVPPPPVPPVLSDDSKNNVPAASLLHDVLPSSNLEKPPSPPVAAAPPLPTFSAPSLPQQSVSTSIPSPPPVAPTLSVRTETESISKNPTKSPPPPPSPSTMDTGTSNSPSKNLKQRLFSTGGSTLQHKHNTHTNQPDVDVGRYTIGGSNSIVGAKSGNERIVIDDSRFKWTNVSQMPKPRPFQNKTKLYPSGKGSSVPLDLTLFT
- Ratio (Deletedscore / WTscore) (bait BBC1): 0.3637
- Ratio (Deletedscore / WTscore) (bait LSB1): 0.5725
- Ratio (Deletedscore / WTscore) (bait LSB3): 0.8547
- Ratio (Deletedscore / WTscore) (bait MYO3): 0.5955
- Ratio (Deletedscore / WTscore) (bait PIN3): 0.5606

B3: YNL243W_1 (protein, UniProt P33338 1-968, looked up)
Protein SLA2: MSRIDSDLQKALKKACSVEETAPKRKHVRACIVYTWDHQSSKAVFTTLKTLPLANDEVQLFKMLIVLHKIIQEGHPSALAEAIRDRDWIRSLGRVHSGGSSYSKLIREYVRYLVLKLDFHAHHRGFNNGTFEYEEYVSLVSVSDPDEGYETILDLMSLQDSLDEFSQIIFASIQSERRNTECKISALIPLIAESYGIYKFITSMLRAMHRQLNDAEGDAALQPLKERYELQHARLFEFYADCSSVKYLTTLVTIPKLPVDAPDVFLINDVDESKEIKFKKREPSVTPARTPARTPTPTPPVVAEPAISPRPVSQRTTSTPTGYLQTMPTGATTGMMIPTATGAANAIFPQATAQMQPDFWANQQAQFANEQNRLEQERVQQLQQQQAQQELFQQQLQKAQQDMMNMQLQQQNQHQNDLIALTNQYEKDQALLQQYDQRVQQLESEITTMDSTASKQLANKDEQLTALQDQLDVWERKYESLAKLYSQLRQEHLNLLPRFKKLQLKVNSAQESIQKKEQLEHKLKQKDLQMAELVKDRDRARLELERSINNAEADSAAATAAAETMTQDKMNPILDAILESGINTIQESVYNLDSPLSWSGPLTPPTFLLSLLESTSENATEFATSFNNLIVDGLAHGDQTEVIHCVSDFSTSMATLVTNSKAYAVTTLPQEQSDQILTLVKRCAREAQYFFEDLMSENLNQVGDEEKTDIVINANVDMQEKLQELSLAIEPLLNIQSVKSNKETNPHSELVATADKIVKSSEHLRVDVPKPLLSLALMIIDAVVALVKAAIQCQNEIATTTSIPLNQFYLKNSRWTEGLISAAKAVAGATNVLITTASKLITSEDNENTSPEQFIVASKEVAASTIQLVAASRVKTSIHSKAQDKLEHCSKDVTDACRSLGNHVMGMIEDDHSTSQQQQPLDFTSEHTLKTAEMEQQVEILKLEQSLSNARKRLGEIRRHAYYNQDDD
- Ratio (Deletedscore / WTscore) (bait BBC1): 0.664
- Ratio (Deletedscore / WTscore) (bait BEM1-1): 1.137
- Ratio (Deletedscore / WTscore) (bait BEM1-2): 0.8469
- Ratio (Deletedscore / WTscore) (bait BZZ1-1): 0.856
- Ratio (Deletedscore / WTscore) (bait HOF1): 0.8741
- Ratio (Deletedscore / WTscore) (bait MYO3): 0.5927
- Ratio (Deletedscore / WTscore) (bait MYO5): 0.7315
- Ratio (Deletedscore / WTscore) (bait PIN3): 1.05

B4: YML016C_1 (protein, UniProt P26570 2-692, looked up)
Serine/threonine-protein …: GNSSSKSSKKDSHSNSSSRNPRPQVSRTETSHSVKSAKSNKSSRSRRSLPSSSTTNTNSNVPDPSTPSKPNLEVNHQRHSSHTNRYHFPSSSHSHSNSQNELLTTPSSSSTKRPSTSRRSSYNTKAAADLPPSMIQMEPKSPILKTNNSSTHVSKHKSSYSSTYYENALTDDDNDDKDNDISHTKRFSRSSNSRPSSIRSGSVSRRKSDVTHEEPNNGSYSSNNQENYLVQALTRSNSHASSLHSRKSSFGSDGNTAYSTPLNSPGLSKLTDHSGEYFTSNSTSSLNHHSSRDIYPSKHISNDDDIENSSQLSNIHASMENVNDKNNNITDSKKDPNEEFNDIMQSSGNKNAPKKFKKPIDIDETIQKLLDAGYAAKRTKNVCLKNNEILQICIKAREIFLSQPSLLELSPPVKIVGDVHGQYGDLLRLFTKCGFPPSSNYLFLGDYVDRGKQSLETILLLFCYKIKYPENFFLLRGNHECANVTRVYGFYDECKRRCNIKIWKTFIDTFNTLPLAAIVAGKIFCVHGGLSPVLNSMDEIRHVVRPTDVPDFGLINDLLWSDPTDSPNEWEDNERGVSYCYNKVAINKFLNKFGFDLVCRAHMVVEDGYEFFNDRSLVTVFSAPNYCGEFDNWGAVMSVSEGLLCSFELLDPLDSAALKQVMKKGRQERKLANQQQQMMETSITNDNESQQ
- Ratio (Deletedscore / WTscore) (bait BBC1): 0.8012
- Ratio (Deletedscore / WTscore) (bait BEM1-2): 0.6049
- Ratio (Deletedscore / WTscore) (bait MYO3): 0.8355

B5: YLR196W_1 (protein, UniProt P21304 1-576, looked up)
Periodic tryptophan protein 1: MISATNWVPRGFSSEFPEKYVLDDEEVERINQLAQLNLDDAKATLEEAEGESGVEDDAATGSSNKLKDQLDIDDDLKEYNLEEYDDEEIADNEGGKDVSMFPGLSNDSDVKFHEGEKGEDPYISLPNQEDSQEEKQELQVYPSDNLVLAARTEDDVSYLDIYVYDDGAGFHSSDIPVEEGDEADPDVARGLVRDPALYVHHDLMLPAFPLCVEWLDYKVGSNSEEAANYAAIGTFDPQIEIWNLDCVDKAFPDMILGEPLDNSMVSLKSKKKKKKSKTGHITTHHTDAVLSMAHNKYFRSVLASTSADHTVKLWDLNSGNAARSLASIHSNKNVSSSEWHMLNGSILLTGGYDSRVALTDVRISDESQMSKYWSAMAGEEIETVTFASENIILCGTDSGNVYSFDIRNNENRKPVWTLKAHDAGISTLCSNKFIPGMMSTGAMGEKTVKLWKFPLDDATNTKGPSMVLSRDFDVGNVLTSSFAPDIEVAGTMVIGGVNKVLKLWDVFTNRSVRKSFKSELENVQARAKEEAQKIGKSSRIARKYTSNDNPDTVITIDDQGEDEEEREGGDEHDDMA
- Ratio (Deletedscore / WTscore) (bait BBC1): 1.08

B6: YBR102C_1 (protein, UniProt P38261 1-753, looked up)
Exocyst complex component …: MVEFSLKKARNNWKHVKKSASSPAKQKTPPSPAKPKQKTKKNPYSDLKDPATSYTLPTINARERSRVATSMQRRLSIHNTNYAPPTLDYSMPLPDMPNMIVPNDNVDSSHNNSSFTTENESVSSKGPSNSLNLSTADLSLNDSSYNKVPARSAMRNTVNPSGSNDPFNNSTSLRKMLANPHFNAKDFVHDKLGNASAITIDKFTSNLTDLSIQVQEEVKLNINKSYNEIMTVNNDLNVAMLELKRVRANINDLNEVLDQCTKIAEKRLQLQDQIDQERQGNFNNVESHSNSPALLPPLKAGQNGNLMRRDRSSVLILEKFWDTELDQLFKNVEGAQKFINSTKGRHILMNSANWMELNTTTGKPLQMVQIFILNDLVLIADKSRDKQNDFIVSQCYPLKDVTVTQEEFSTKRLLFKFSNSNSSLYECRDADECSRLLDVIRKAKDDLCDIFHVEEENSKRIRESFRYLQSTQQTPGRENNRSPNKNKRRSMGGSITPGRNVTGAMDQYLLQNLTLSMHSRPRSRDMSSTAQRLKFLDEGVEEIDIELARLRFESAVETLLDIESQLEDLSERISDEELMLLNLISLKIEQRREAISSKLSQSILSSNEIVHLKSGTENMIKLGLPEQALDLFLQNRSNFIQDLILQIGSVDNPTNYLTQLAVIRFQTIKKTVEDFQDIFKELGAKISSILVDWCSDEVDNHFKLIDKQLLNDEMLSPGSIKSSRKQIDGLKAVGLDFVYKLDEFIKKNSDKIR
- Ratio (Deletedscore / WTscore) (bait BEM1-1): 0.5987
- Ratio (Deletedscore / WTscore) (bait BEM1-2): 0.6932
- Ratio (Deletedscore / WTscore) (bait RVS167): 0.8234
